This note sets out measurements from EP4799645A2 (GAN & LEE PHARMACEUTICALS CO., LTD., dated 2026).

Numbered stars: 1 amine (or outer) side, 2 acyl side, 3 side chain; on linkers, the order of the positions; unused ones are H or OH. Side chains are listed from the residue outwards. Ends that are not written are not given here. * marks the point of attachment. C22 diacid = O=C(O)CCCCCCCCCCCCCCCCCCCCC(=O)*; γGlu = O=C(O)[C@H](CCC(=O)[*:2])N[*:1]; AEEA = NCCOCCOCC(=O)O

This test deals with albumin (HSA) (human, UniProt P02768 25-609). Description: shift of receptor-binding IC50 between 0.005% and 2% HSA (indirect).
Chain of albumin (HSA) (P02768 25-609 limits assumed): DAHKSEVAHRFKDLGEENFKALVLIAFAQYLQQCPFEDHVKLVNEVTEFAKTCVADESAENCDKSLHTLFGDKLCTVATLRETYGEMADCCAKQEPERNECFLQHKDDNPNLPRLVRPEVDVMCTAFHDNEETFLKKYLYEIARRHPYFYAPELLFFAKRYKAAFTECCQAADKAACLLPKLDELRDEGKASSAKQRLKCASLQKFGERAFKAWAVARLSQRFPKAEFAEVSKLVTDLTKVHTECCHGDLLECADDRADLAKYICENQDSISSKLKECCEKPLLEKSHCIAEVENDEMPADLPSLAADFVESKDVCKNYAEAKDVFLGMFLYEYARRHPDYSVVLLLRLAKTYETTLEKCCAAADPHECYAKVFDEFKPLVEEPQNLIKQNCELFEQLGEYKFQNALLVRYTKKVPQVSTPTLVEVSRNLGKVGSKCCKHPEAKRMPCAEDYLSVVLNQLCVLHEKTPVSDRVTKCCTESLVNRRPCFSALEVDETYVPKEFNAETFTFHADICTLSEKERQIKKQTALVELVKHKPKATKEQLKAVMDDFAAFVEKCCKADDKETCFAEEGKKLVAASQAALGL

Regarding HGEGTFTSDVSSYLEGQAAK([AEEA-AEEA-γGlu-C22 diacid])EFIAWLVRGRG (also called Compound 10), the binding result is “binds”.
